For orientation: koff means a measure of how fast the partners let go of each other. A higher koff goes with a short-lived complex. As usually defined, the kon is a measure of how fast the partners come together. High values mean fast association, low ones slow association.

From PMC9006656 come the findings set out here.

The target of experiment [1] is wild-type human IgG1 Fc displayed on the CHO cell surface (human). The experiment in a line: flow cytometry on cells; Fc variants displayed on CHO-T cells as monoclonal populations; stained with monomeric FcγRIIIa V158 on fluorescent streptavidin (50 nM in Fig. 7A) in flow buffer at pH 6.5; percent of cells binding. (A flow cytometer gives signals particle by particle.)

Experiment [2] deals with GST-tagged human FcRn-β2m (human) (UniProt P55899).
Experiment [3] has as its target hu4D5 full-length human IgG1 antibody with wild-type Fc (human). The experiment in a line: BLI; antibody captured on anti-CH1 FAB2G tips; FcγRIIIa V158 (62.5-2000 nM) or F158 (156-5000 nM) in solution, pH 6.5; 1:1 model, full association and initial 5 s of dissociation; Kd = koff/kon; observed values. A general note: In BLI a coated tip is dipped into the sample, and binding shifts an interference pattern.

The target in experiment [4] is hu4D5 full-length human IgG1 antibody with acid-Fc (human). The experiment is described as above.
In experiment [5] the target is hu4D5 full-length human IgG1 antibody with wild-type Fc (human). As to the kind of experiment: BLI; antibody captured on anti-CH1 FAB2G tips; FcγRIIIa V158 (62.5-2000 nM) or F158 (156-5000 nM) in solution, pH 7.4; 1:1 model, full association and initial 5 s of dissociation; Kd = koff/kon; observed values.
For experiment [6], the target named is hu4D5 full-length human IgG1 antibody with acid-Fc (human). The experiment is described as above.
The target in experiment [7] is hu4D5 full-length human IgG1 antibody with wild-type Fc (human). As to the kind of experiment: BLI; same FAB2G experiment at pH 7.4, steady state analysis: equilibrium responses fit to a Langmuir isotherm; apparent.
Experiment [8] has as its target hu4D5 full-length human IgG1 antibody with acid-Fc (human). The description is as above.
Experiment [9] has as its target hu4D5 full-length human IgG1 antibody with wild-type Fc (human). As to the kind of experiment: BLI; same FAB2G experiment at pH 6.5, steady state analysis: equilibrium responses fit to a Langmuir isotherm; apparent.
The target in experiment [10] is hu4D5 full-length human IgG1 antibody with acid-Fc (human). The experiment is described as above.

Chain of UniProt P55899 (P55899 24-365, chain 1 of 2): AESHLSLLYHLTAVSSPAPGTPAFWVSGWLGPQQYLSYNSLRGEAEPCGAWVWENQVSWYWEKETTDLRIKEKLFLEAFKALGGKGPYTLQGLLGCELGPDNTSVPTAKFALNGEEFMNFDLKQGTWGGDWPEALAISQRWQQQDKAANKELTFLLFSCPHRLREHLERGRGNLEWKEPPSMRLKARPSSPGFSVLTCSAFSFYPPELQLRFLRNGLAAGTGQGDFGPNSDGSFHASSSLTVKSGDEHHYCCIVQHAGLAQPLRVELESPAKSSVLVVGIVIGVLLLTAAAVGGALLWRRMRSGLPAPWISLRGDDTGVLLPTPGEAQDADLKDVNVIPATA
Chain of UniProt P55899 (P61769 21-119, chain 2 of 2, further chain): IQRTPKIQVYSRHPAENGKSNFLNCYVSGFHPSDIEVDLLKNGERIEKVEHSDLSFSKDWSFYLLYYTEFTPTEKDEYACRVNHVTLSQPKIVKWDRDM
Chain of wild-type human IgG1 Fc displayed on the CHO cell surface (human) (P01857 1-350): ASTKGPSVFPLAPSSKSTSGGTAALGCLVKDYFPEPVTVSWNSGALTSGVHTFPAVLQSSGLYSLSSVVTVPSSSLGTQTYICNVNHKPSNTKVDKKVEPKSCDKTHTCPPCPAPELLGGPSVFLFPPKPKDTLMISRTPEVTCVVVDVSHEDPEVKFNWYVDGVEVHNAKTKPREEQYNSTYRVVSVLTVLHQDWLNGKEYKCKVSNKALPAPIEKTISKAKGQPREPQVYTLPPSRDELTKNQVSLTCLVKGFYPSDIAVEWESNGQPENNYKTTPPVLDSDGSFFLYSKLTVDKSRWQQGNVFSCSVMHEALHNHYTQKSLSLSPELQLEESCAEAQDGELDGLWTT

In the case of “biotinylated FcγRIIIa (allele V158) monomerically bound to fluorescent streptavidin (receptor)”, the ratio of the percent of cells binding at pH 6.5 versus the percent binding at pH 7.4 in experiment [1] came to 1.
As for “hu4D5 full-length human IgG1 antibody with wild-type Fc”, in experiment [2], the serum beta elimination half-life (t1/2) in homozygous Tg32 mice expressing human FcRn, 2 mg/kg intraperitoneally worked out at 209 h.
Turning to “hu4D5 human IgG1 antibody with the M252Y/S254T/T256E (YTE) substitutions”, the serum beta elimination half-life (t1/2) in homozygous Tg32 mice expressing human FcRn, increase as compared to wild-type in [2] came out at 1.4 fold.
As to “human FcγRIIIa F158, AVI and His tagged, biotinylated (from UniProt P08637 17-254) (receptor)”, the Kd in experiment [3] was 401 nM; in experiment [4], 538 nM; in experiment [5] it was 484 nM; in [6], 909 nM; in experiment [7], 513 nM; in experiment [8], 1090 nM. For the same substance, the Kd is 418 nM in experiment [9] and 603 nM in experiment [10]. Besides, the koff in experiment [3] is 0.119 s⁻¹; in experiment [4] it was 0.177 s⁻¹; in [5], 0.134 s⁻¹; in experiment [6], 0.226 s⁻¹. Further, the kon in experiment [3] was 300000 M⁻¹ s⁻¹; in experiment [4], 340000 M⁻¹ s⁻¹; in experiment [5], 280000 M⁻¹ s⁻¹; in experiment [6] it was 250000 M⁻¹ s⁻¹.
